Experimental data reported in US6680424 (UNIVERSITY OF LEEDS, dated 2004).
Like-named read-outs stand apart in the source and are kept apart here.

T1: C. elegans cysteine proteinase gcp-1, expressed and purified from E. coli (Caenorhabditis elegans, UniProt P25807 85-329, limits assumed)
T1 construct: also called gcp-I; glp-1
T1 sequence (looked up): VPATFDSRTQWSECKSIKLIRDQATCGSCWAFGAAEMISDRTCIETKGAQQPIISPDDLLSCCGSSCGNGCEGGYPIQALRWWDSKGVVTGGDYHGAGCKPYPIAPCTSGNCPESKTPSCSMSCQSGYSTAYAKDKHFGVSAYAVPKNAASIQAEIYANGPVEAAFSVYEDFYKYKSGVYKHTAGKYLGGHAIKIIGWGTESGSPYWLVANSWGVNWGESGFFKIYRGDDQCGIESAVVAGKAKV

T2: papain (UniProt P00784 134-345)
T2 sequence (looked up): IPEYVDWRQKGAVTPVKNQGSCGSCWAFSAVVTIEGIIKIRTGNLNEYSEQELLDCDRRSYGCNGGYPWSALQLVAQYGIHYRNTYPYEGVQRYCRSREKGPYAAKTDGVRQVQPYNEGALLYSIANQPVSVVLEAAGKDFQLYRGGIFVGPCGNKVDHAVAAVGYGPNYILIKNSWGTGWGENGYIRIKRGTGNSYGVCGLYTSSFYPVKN


What was measured:
[1] = target: corresponding proteinases (proteinase of the comparative inhibition assay, not named); assay: cell-based or functional assay
[2] = target: T1, C. elegans cysteine proteinase gcp-1, …; assay: proteinase inhibition assay (Barrett), Ki calculated as by Abe et al.
Method: (§1) To determine the Ki of cystatins biochemical assays were performed according to the procedure of Barrett (7) and Ki values were calculated as described by Abe et al. (3)

[3] = target: T2, papain; assay: as above
Method: as §1

[4] = target: corresponding proteinases (proteinase of the comparative inhibition assay, not named); assay: cell-based or functional assay; remark: listed apart in the source
[5] = target: T1, C. elegans cysteine proteinase gcp-1, …; assay: proteinase inhibition assay, Ki
[6] = target: T2, papain; assay: proteinase inhibition assay, Ki

Molecule	relative percentage inhibition [1]	Ki [2]	Ki [3]	relative percentage inhibition [4]	fold lowering of Ki against wild type Oc-I [5]	fold lowering of Ki against wild type Oc-I [6]
Chicken egg white cystatin (CEWC) (from UniProt P01038 24-139)	100%	–	–	–	–	–
OC-NTERM1-15QVLSG40-63CTERM97-116 (hybrid of Oc-I with three CEWC regions) (from UniProt P09229 56-77; P09229 102-123)	90%	–	–	–	–	–
Oryzacystatin I (Oc-I), wild type, expressed from pQE30 in E. coli (other, Oryza sativa L. japonica, the present UniProt entry may carry a longer N-terminus, so the numbering must be checked; also called Oryzacystatin Oc-I; native Oc-I) HHHHHHMSSDGGPVLGGVEPVGNENDLHLVDLARFAVTEHNKKANSLLEFEKLVSVKQQVVAGTLYYFTIEVKEGDAKKLYEAKVWEKPWMDFKELQEFKPVDASANA	–	8 nM	7 nM	60%	–	–
Oc-IdeltaD86 (Oryzacystatin I with aspartic acid 86 deleted) (other) HHHHHHMSSDGGPVLGGVEPVGNENDLHLVDLARFAVTEHNKKANSLLEFEKLVSVKQQVVAGTLYYFTIEVKEGDAKKLYEAKVWEKPWMFKELQEFKPVDASANA	88%	0.6 nM	0.5 nM	–	~13 fold	~13 fold
Oc-I with deletion of residue M85 (other) HHHHHHMSSDGGPVLGGVEPVGNENDLHLVDLARFAVTEHNKKANSLLEFEKLVSVKQQVVAGTLYYFTIEVKEGDAKKLYEAKVWEKPWDFKELQEFKPVDASANA	–	7.1 nM	–	–	–	–
